# T1: myc-MKP3 (UniProt Q16828 1-381)
# T1 construct: also called MAP kinase phosphatase 3; not shown: myc tag
# T1 sequence (looked up): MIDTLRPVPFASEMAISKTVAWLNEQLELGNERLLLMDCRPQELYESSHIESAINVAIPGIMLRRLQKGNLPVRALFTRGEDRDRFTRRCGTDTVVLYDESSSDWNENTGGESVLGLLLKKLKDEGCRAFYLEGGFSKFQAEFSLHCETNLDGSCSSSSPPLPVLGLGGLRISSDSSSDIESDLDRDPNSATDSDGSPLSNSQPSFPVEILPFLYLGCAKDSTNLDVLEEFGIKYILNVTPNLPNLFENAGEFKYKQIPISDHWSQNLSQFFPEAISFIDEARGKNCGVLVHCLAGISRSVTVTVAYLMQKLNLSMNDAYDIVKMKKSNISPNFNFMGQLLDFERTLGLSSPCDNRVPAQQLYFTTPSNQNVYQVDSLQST
# T2: IRAKM, overexpressed, from IL-33-treated cells (UniProt Q9Y616 1-596, phosphoserine at 110 (LC-MS/MS of the GST-Pin1-bound protein))
# T2 construct: also called WT IRAKM
# T2 sequence (looked up): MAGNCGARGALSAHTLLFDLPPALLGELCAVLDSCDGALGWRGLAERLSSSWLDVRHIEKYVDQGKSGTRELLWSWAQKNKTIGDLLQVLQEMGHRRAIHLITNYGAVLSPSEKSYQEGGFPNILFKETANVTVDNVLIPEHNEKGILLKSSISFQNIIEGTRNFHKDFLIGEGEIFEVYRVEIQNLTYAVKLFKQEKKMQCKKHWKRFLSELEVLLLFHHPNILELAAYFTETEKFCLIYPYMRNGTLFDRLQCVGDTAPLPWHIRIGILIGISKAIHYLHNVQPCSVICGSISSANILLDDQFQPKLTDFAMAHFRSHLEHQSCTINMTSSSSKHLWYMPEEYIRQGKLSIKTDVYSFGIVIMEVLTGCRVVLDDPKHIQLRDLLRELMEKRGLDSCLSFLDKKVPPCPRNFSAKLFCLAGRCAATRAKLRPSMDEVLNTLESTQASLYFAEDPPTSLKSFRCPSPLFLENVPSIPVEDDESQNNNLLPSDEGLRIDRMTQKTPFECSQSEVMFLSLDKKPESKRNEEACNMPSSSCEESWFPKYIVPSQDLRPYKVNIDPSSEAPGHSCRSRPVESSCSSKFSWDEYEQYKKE
# T3: IRAKM P111A (UniProt Q9Y616 1-596)
# T3 construct: also called P111A mutant; P111 mutation
# T3 sequence (looked up): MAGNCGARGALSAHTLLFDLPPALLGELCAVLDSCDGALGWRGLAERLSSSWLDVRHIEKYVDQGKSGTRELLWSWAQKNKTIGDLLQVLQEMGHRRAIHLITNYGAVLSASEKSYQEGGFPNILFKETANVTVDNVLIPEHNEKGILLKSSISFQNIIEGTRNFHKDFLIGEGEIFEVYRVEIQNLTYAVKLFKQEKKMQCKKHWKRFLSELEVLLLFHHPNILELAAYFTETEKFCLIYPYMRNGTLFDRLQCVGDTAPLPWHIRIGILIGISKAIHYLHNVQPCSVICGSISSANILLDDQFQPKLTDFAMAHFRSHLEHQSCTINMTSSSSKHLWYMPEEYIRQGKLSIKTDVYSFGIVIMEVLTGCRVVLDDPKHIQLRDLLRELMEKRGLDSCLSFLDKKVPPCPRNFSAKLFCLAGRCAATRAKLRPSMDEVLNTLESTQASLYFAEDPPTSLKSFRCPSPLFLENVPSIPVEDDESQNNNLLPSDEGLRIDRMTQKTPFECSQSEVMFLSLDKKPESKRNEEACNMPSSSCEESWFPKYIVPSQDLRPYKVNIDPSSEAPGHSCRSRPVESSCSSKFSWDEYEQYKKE
# T4: IRAKM S110E peptide (IRAKM residues 103-124 with the S110E substitution)
# T4 construct: Synthetic peptide; also called IRAKM Ser110E
# T4 peptide: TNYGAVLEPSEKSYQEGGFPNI
# B1: Erk1 (enzyme, human, UniProt P27361 1-379, looked up)
# chain: MAAAAAQGGGGGEPRRTEGVGPGVPGEVEMVKGQPFDVGPRYTQLQYIGEGAYGMVSSAYDHVRKTRVAIKKISPFEHQTYCQRTLREIQILLRFRHENVIGIRDILRASTLEAMRDVYIVQDLMETDLYKLLKSQQLSNDHICYFLYQILRGLKYIHSANVLHRDLKPSNLLINTTCDLKICDFGLARIADPEHDHTGFLTEYVATRWYRAPEIMLNSKGYTKSIDIWSVGCILAEMLSNRPIFPGKHYLDQLNHILGILGSPSQEDLNCIINMKARNYLQSLPSKTKVAWAKLFPKSDSKALDLLDRMLTFNPNKRITVEEALAHPYLEQYYDPTDEPVAEEPFTFAMELDDLPKERLKELIFQETARFQPGVLEAP
# notes: entries are written once for Erk1 and once for Erk2; also called Erk1/2 (member Erk1); total Erk1/2
# Columns and labels:
# Erk1 [1] = biological target: B1; experiment: reciprocal co-IP of endogenous proteins from HMLE lysate, western blot; the Erk1/2 strip does not separate Erk1 from Erk2
# Erk2 [2] = biological target: T5, Erk2 (human, UniProt P28482 1-360); experiment: as above
# T5 construct: entries are written once for Erk1 and once for Erk2; also called Erk1/2 (member Erk2); total Erk1/2
# T5 sequence (P28482 whole entry): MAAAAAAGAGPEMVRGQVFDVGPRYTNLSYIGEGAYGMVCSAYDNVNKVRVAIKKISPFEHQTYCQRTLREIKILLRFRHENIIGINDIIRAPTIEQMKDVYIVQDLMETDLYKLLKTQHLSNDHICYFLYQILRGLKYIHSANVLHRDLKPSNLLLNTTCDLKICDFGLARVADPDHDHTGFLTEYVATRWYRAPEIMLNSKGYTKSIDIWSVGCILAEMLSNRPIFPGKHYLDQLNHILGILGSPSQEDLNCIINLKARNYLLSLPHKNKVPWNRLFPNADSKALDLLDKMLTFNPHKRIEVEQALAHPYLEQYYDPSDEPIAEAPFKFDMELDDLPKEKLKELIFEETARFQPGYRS
# Erk1 [3] = biological target: B1; experiment: Flag co-IP from HEK293 cells transfected with Flag-Rab2A with or without AcMEK1, western blot
# Erk2 [4] = biological target: T5, Erk2; experiment: as above
# [5] = biological target: T6, p-Erk2 (phosphorylated Erk2) (human, UniProt P28482 2-360, phosphorylated (p-Erk1/2, induced by constitutively active MEK1); sites not given); experiment: as above
# T6 construct: also called p-Erk1/2 (member Erk2)
# T6 sequence (P28482 2-360 limits assumed): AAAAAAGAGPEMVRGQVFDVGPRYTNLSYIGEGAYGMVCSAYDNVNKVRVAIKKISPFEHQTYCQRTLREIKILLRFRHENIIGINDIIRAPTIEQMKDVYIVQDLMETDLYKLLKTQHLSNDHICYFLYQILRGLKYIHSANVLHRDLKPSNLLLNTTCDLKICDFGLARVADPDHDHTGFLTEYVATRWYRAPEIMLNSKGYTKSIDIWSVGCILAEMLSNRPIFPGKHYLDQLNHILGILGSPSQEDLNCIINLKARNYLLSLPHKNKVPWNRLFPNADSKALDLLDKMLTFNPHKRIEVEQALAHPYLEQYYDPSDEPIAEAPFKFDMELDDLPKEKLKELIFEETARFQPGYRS
# [6] = biological target: T7, p-Erk1 (phosphorylated Erk1) (human, UniProt P27361 2-379, phosphorylated (p-Erk1/2, induced by constitutively active MEK1); sites not given); experiment: as above
# T7 construct: also called p-Erk1/2 (member Erk1)
# Erk1 [7] = biological target: B1; experiment: GST pull-down of endogenous Erk1/2 from cell lysate, western blot
# Erk2 [8] = biological target: T5, Erk2; experiment: as above
# myc-MKP3 = biological target: T1, myc-MKP3; experiment: competition co-IP: Flag IP of 293T lysates with a constant dose of Flag-Rab2A (competitor) and falling doses of myc-MKP3, western blot for Erk1/2
# [9] = biological target: T2, IRAKM, overexpressed, from …; experiment: co-IP with anti-GFP antibody from IL-33-treated HEK293 cells co-expressing IRAKM, western blot for IRAKM
# IRAKM P111A = biological target: T3, IRAKM P111A; experiment: co-IP with anti-IRAKM antibody from DC2.4 cells stably expressing P111A, western blot for Pin1
# [10] = biological target: T4, IRAKM S110E peptide (IRAKM residues …); experiment: NMR titration, 1H-15N HSQC chemical shift changes
binder,measurement,setting,value
"endogenous Rab2A (HMLE cells) (enzyme, human, UniProt P61019 2-212, looked up) AYAYLFKYIIIGDTGVGKSCLLLQFTDKRFQPVHDLTIGVEFGARMITIDGKQIKLQIWDTAGQESFRSITRSYYRGAAGALLVYDITRRDTFNHLTTWLEDARQHSNSNMVIMLIGNKSDLESRREVKKEEGEAFAREHGLIFMETSAKTASNVEEAFINTAKEIYEKIQEGVFDINNEANGIKIGPQHAATNATHAGNQGGQQAGGGCC",binding result,Erk1 [1],binds
same,binding result,Erk2 [2],binds
"Flag-Rab2A (enzyme, UniProt P61019 1-212, looked up, Expressed in HEK293/293T or HMLE cells; also called Flag-tagged wild-type Rab2A; not shown: Flag tag) MAYAYLFKYIIIGDTGVGKSCLLLQFTDKRFQPVHDLTIGVEFGARMITIDGKQIKLQIWDTAGQESFRSITRSYYRGAAGALLVYDITRRDTFNHLTTWLEDARQHSNSNMVIMLIGNKSDLESRREVKKEEGEAFAREHGLIFMETSAKTASNVEEAFINTAKEIYEKIQEGVFDINNEANGIKIGPQHAATNATHAGNQGGQQAGGGCC",binding result,Erk1 [3],binds
same,binding result,Erk2 [4],binds
same,binding result,[5],binds
same,binding result,[6],binds
"GST-Rab2A (wild type) (enzyme, UniProt P61019 1-212, looked up, also called wild-type GST-Rab2A fusion protein; not shown: GST tag) MAYAYLFKYIIIGDTGVGKSCLLLQFTDKRFQPVHDLTIGVEFGARMITIDGKQIKLQIWDTAGQESFRSITRSYYRGAAGALLVYDITRRDTFNHLTTWLEDARQHSNSNMVIMLIGNKSDLESRREVKKEEGEAFAREHGLIFMETSAKTASNVEEAFINTAKEIYEKIQEGVFDINNEANGIKIGPQHAATNATHAGNQGGQQAGGGCC",binding result,Erk1 [7],binds
same,binding result,Erk2 [8],binds
"GST-Rab2A mut1/2 (enzyme, UniProt P61019 1-212, looked up, not shown: GST tag) MAYAYLFKYIIIGDTGVGKSCLLLQFTDAAFQPVHDATAGVEFGARMITIDGKQIKLQIWDTAGQESFRSITRSYYRGAAGALLVYDITRRDTFNHLTTWLEDARQHSNSNMVIMLIGNKSDLESRREVKKEEGEAFAREHGLIFMETSAKTASNVEEAFINTAKEIYEKIQEGVFDINNEANGIKIGPQHAATNATHAGNQGGQQAGGGCC",binding result,Erk1 [7],no binding
same,binding result,Erk2 [8],no binding
B1,binding result,myc-MKP3,binds
"GFP-PPlase (other, also called GFP fused the Pin1 peptidyl-prolyl cis-trans isomerase (PPlase) domain; GFP-PPlase domain; not shown: GFP) GKNGQGEPARVRCSHLLVKHSQSRRPSSWRQEKITRTKEEALELINGYIQKIKSGEEDFESLASQFSDCSSAKARGDLGAFSRGQMQKPFEDASFALRTGEMSGPVFTDSGIHIILRTE",binding result,[9],no binding
"Pin1, endogenous in DC2.4 cells (enzyme, mouse, UniProt Q9QUR7 1-165, looked up) MADEEKLPPGWEKRMSRSSGRVYYFNHITNASQWERPSGGSTVGGSSKNGQGEPAKVRCSHLLVKHSQSRRPSSWRQEKITRSKEEALELINGYIQKIKSGEEDFESLASQFSDCSSAKARGDLGPFSRGQMQKPFEDASFALRTGEMSGPVFTDSGIHIILRTE",binding result,IRAKM P111A,no binding
"MADEEKLPPGWEKRMSRSSGRVYYFNHITNASQWERPSGNSSSGGKNGQG (other, UniProt Q13526 1-50, looked up, uniformly 15N-labeled, range 1-50; also called 15N-Pin1-WW; 15N-Pin1 WW) [15N-labeled Pin1 WW domain (Pin1 residues 1-50)]",Kd,[10],1.51 mM

# From US20170112792A1 (BETH ISRAEL DEACONESS MEDICAL CENTER, published 2017)
